In patent EP4663199A1:

Target: bispecific binding molecule comprising a first specific binding molecule (comprising SEQ ID NO:265 a)
Sequence (chain, as listed by the source, chain 1 of 3): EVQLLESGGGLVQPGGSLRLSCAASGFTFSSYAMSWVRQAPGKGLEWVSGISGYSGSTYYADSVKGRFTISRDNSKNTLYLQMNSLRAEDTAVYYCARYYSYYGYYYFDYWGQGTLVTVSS
Sequence (chain, as listed by the source, chain 2 of 3): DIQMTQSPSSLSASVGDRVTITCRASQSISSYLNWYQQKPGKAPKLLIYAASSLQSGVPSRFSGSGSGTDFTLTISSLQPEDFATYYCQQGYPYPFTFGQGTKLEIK
Sequence (chain, as listed by the source, chain 3 of 3): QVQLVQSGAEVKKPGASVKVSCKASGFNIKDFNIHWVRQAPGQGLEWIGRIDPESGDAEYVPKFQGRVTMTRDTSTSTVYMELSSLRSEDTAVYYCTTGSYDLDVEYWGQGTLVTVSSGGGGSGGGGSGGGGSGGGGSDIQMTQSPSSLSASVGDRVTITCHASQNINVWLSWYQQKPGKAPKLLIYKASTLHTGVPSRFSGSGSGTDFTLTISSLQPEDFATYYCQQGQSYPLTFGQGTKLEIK

| Binder | Kd [nM] |
| --- | --- |
| FIGITELHK (modifications not checked) [tag moiety … (SEQ ID NO:4)] | 0.015 |
| FIGITELLK (modifications not checked) [tag moiety … (SEQ ID NO:3)] | 0.063 |
| FIGITELLKGGSSSAESLKISQAVHAAHAEINEAGREVVGSAE (modifications not checked) [peptide SEQ ID NO:244 (tag moiety …, GGS spacer, cargo peptide)] | 0.019 |
| FIGITELHKGGSSSAESLKISQAVHAAHAEINEAGREVVGSAE (modifications not checked) [peptide SEQ ID NO:245 (tag moiety …, GGS spacer, cargo peptide)] | 0.0054 |
| FIGITELHKGGSAVGALKVPRNQDWLGVPRQL (modifications not checked) [peptide SEQ ID NO:239 (tag moiety …, GGS spacer, cargo peptide)] | 0.063 |
| FIGITELLKGGSAVGALKVPRNQDWLGVPRQL (modifications not checked) [peptide SEQ ID NO:238 (tag moiety …, GGS spacer, cargo peptide)] | 0.171 |
| FIGITELLKSSAESLKISQAVHAAHAEINEAGREVVGSAE (modifications not checked) [peptide SEQ ID NO:241 (tag moiety …, no spacer, cargo peptide)] | 0.013 |
| FIGITELHKSSAESLKISQAVHAAHAEINEAGREVVGSAE (modifications not checked) [peptide SEQ ID NO:242 (tag moiety …, no spacer, cargo peptide)] | 0.019 |
